B1: CPEB3 Ribozyme (parent)
chain: GGGGGCCACAGCAGAAGCGUUCACGUCGCGGCCCCUGUCAGAUUCUGGUGAAUCUGCGAAUUCUGCUGU

Variants of: B1
Assay: self-cleavage, relative activity (ratio to wild type); higher = more cleavage; co-transcriptional

| Variant | self-cleavage |
| --- | --- |
| GGGGGUCACAGCAGAAGCGUUCACGUCGCGUCCCCUGUCAGAUUCUGGUGAAUCUGCGAAUUCUGCUGU | 0.914 |
| GGGGGUCACAGCAGAAGCGUUCACGUCGCGCCCCCUGUCAGAUUCUGGUGAAUCUGCGAAUUCUGCUGU | 0.536 |
| GGGGGUCACAGCAGAAGCGUUCACGUCGCGGCCCCUGUCAGAUUCUGGUGAAUCUGCGAAUUCUGAUGU | 0.881 |
| GGGGGUCACAGCAGAAGCGUUCACGUCGCGGCCCCUGUCAGAUUCUGGUGAAUCUGCGAAUUCUGGUGU | 0.939 |
| GGGGGUCACAGCAGAAGCGUUCACGUCGCGGCCCCUGUCAGAUUCUGGUGAAUCUGCGAAUUCUGUUGU | 0.991 |
| GGGGGUCACAGCAGAAGCGUUCACGUCGCCGCCCCUGUCAGAUUCUGGUGAAUCUGCGAAUUCUGCUGU | 0.348 |
| GGGGGUCACAGCAGAAGCGUUCACGUCGCAGCCCCUGUCAGAUUCUGGUGAAUCUGCGAAUUCUGCUGU | 0.632 |
| GGGGGUCACAGCAGAAGCGUUCACGUCGCUGCCCCUGUCAGAUUCUGGUGAAUCUGCGAAUUCUGCUGU | 0.235 |
| GGGGGUCACAGCAGAAACGUUCACGUCGCGGCCCCUGUCAGAUUCUGGUGAAUCUGCGAAUUCUGCUGU | 0.315 |
| GGGGGUCACAGCAGAACCGUUCACGUCGCGGCCCCUGUCAGAUUCUGGUGAAUCUGCGAAUUCUGCUGU | 0.0825 |
| GGGGGUCACAGCAGAAGCGUUCACGUCACGGCCCCUGUCAGAUUCUGGUGAAUCUGCGAAUUCUGCUGU | 0.0973 |
| GGGGGUCACAGCAGAAGCGUUCACGUCCCGGCCCCUGUCAGAUUCUGGUGAAUCUGCGAAUUCUGCUGU | 0.0878 |
| GGGGGUCACAGCAAAAGCGUUCACGUCGCGGCCCCUGUCAGAUUCUGGUGAAUCUGCGAAUUCUGCUGU | 0.672 |
| GGGGGUCACAGCAGAAGCGUUCACGUCGCGGCCCCUGUUAGAUUCUGGUGAAUCUGCGAAUUCUGCUGU | 0.955 |
| GGGGGUCACAGCAGAAGCGUUCACGUCGCGGCCCCUGUCAGAUUCUGGUGAAUCUGCGAAUUUUGCUGU | 1.01 |
| GGGGGUCACAGCAGAAGCGUUCACGUCGCGGCCCCUGUCAGAUUCUGGUGAAUCUGCGAAUUGUGCUGU | 0.808 |
| GGGGGUCACAGCAGAAGCGUUCACCUCGCGGCCCCUGUCAGAUUCUGGUGAAUCUGCGAAUUCUGCUGU | 0.13 |
| GGGGGUCACAGCAGAAGCGUUCACGUCGCGGCCCCUGUCAGAUUCUGGUGAAUCUGUGAAUUCUGCUGU | 0.363 |
| GGGGGUCACAGCAGAAGCGUUCACGUCGCGGCCCCUGUCAGAUUCUGGUGAAUCUGAGAAUUCUGCUGU | 0.362 |
| GGGGGUCACAGCAGAAGCGUUCACGUCGCGGCCCCUGUCAGAUUCUGGUGAAUCUGGGAAUUCUGCUGU | 0.266 |

| Variant | self-cleavage |
| --- | --- |
| GGGGGUCACAGCAGAAGCGUUCACGUCGCGGCCCCUGUCAGAUUCUGGUGAAUGUGCGAAUUCUGCUGU | 0.733 |
| GGGGGUCACAGCAGAAGCGUUCACGUCGCGGCCCCUGUCAGAUUCUGGUGAAUAUGCGAAUUCUGCUGU | 0.847 |
| GGGGGUCACAGCAGAAGCGUUCACGUCGCGGCCCCUGUCACAUUCUGGUGAAUCUGCGAAUUCUGCUGU | 0.708 |
| GGGGGUCACAGCAGAAGCGUUCACGUCGCGGCCCCUGUCAAAUUCUGGUGAAUCUGCGAAUUCUGCUGU | 0.815 |
| GGGGGUCACAGCAGAAGCGUUCACGUCGCGGCCCCUGUCAGAUUCUUGUGAAUCUGCGAAUUCUGCUGU | 1.02 |
| GGGGGUCACAGCAGAAGCGUUCACGUCGCGGCCCCUGUCAGAUUCUCGUGAAUCUGCGAAUUCUGCUGU | 0.996 |
| GGGGGUCACAGCAGAAGCGUUCACGUCGCGGCCCCUGUCAGAUUCUAGUGAAUCUGCGAAUUCUGCUGU | 1.01 |
| GGGGGUCACAGCAGAAGCGUUCACGUCGCGGCCCCUAUCAGAUUCUGGUGAAUCUGCGAAUUCUGCUGU | 0.22 |
| GGGGGUCACAGCAGAAGCGUUCACGUCGCGGCCCCUUUCAGAUUCUGGUGAAUCUGCGAAUUCUGCUGU | 0.169 |
| GGGGGUCACAGCAGAAGCGUUCACGUCGCGGCCCCUCUCAGAUUCUGGUGAAUCUGCGAAUUCUGCUGU | 0.154 |
| GGGGGUCACAGCAGAAGCAUUCACGUCGCGGCCCCUGUCAGAUUCUGGUGAAUCUGCGAAUUCUGCUGU | 0.117 |
| GGGGGUCACAGCAGAAGCCUUCACGUCGCGGCCCCUGUCAGAUUCUGGUGAAUCUGCGAAUUCUGCUGU | 0.124 |
| GGGGGUCACAUCAGAAGCGUUCACGUCGCGGCCCCUGUCAGAUUCUGGUGAAUCUGCGAAUUCUGCUGU | 0.876 |
| GGGGGUCACACCAGAAGCGUUCACGUCGCGGCCCCUGUCAGAUUCUGGUGAAUCUGCGAAUUCUGCUGU | 0.828 |
| GGGGGUCACAGCAGAAGCGUUCACGUCGCGGCCCCUGUCAGAUUUUGGUGAAUCUGCGAAUUCUGCUGU | 1 |
| GGGGGUCACAGCAGAAGCGUUCACGUCGCGGCCCCUGUCAGAUUAUGGUGAAUCUGCGAAUUCUGCUGU | 1.02 |
| GGGGGUCACAGCAGAAGCGUUCACGUCGCGGCCCCUGUCAGAUUGUGGUGAAUCUGCGAAUUCUGCUGU | 1.02 |
| GGGGGUCACAGCAGAAGCGUUCACGUCGCGGCCCCUGUCAGAUUCUGCUGAAUCUGCGAAUUCUGCUGU | 0.995 |
| GGGGGUCACAGCAGAAGCGUUCACGUCGCGGCCCCUGUCAGAUUCUGAUGAAUCUGCGAAUUCUGCUGU | 1.03 |

From the RNAGym collection of RNA variant scans (doi:10.7554/elife.80360)
